We go through one molecule from patent publication US12077609B2, “Variable lymphocyte receptors that target the brain extracellular matrix and methods of use” (Wisconsin Alumni Research Foundation, priority 2018, dated 2024).

Assay [1] deals with bEnd.3 ECM. Description: Affinity measurement of purified VLR on bEnd.3 ECM (ELISA, one-site equilibrium binding model). Details: species or system mouse. Particulars: three replicates, monomeric equilibrium binding model; read-out: Monomeric dissociation constant (Kd) for binding to bEnd.3 ECM. As to the method: To characterize VLR affinity for bEnd.3 ECM, dilutions of purified VLR were incubated with ECM. P1C10 VLR was diluted using a sixfold dilution scheme from 10 μM to 0.21 nM and then incubated with bEnd.3 ECM. Wells were washed five times with PBS+0.05% Tween 20 and then inubcated with anti-myc 9E10, 1:750, (BioLegend) and goat anti-mouse IgG modified with HRP. Wells were washed seven times with PBS+0.05% Tween 20 and then incubated with TMB substrate. Reaction was stopped after 15 min by acidification with 1 M HCl. Absorbance at 450 nm was quantified, and data were fit to a one-site equilibrium binding model to determine Kd as previously described (43). The amino acid sequence for VLR P1C10 is […]
In general terms: ELISA stands for enzyme-linked immunosorbent assay.

In assay [2] the test system is U87 cells. Description: In vitro U87 cytotoxicity assay on bEnd.3 ECM (CellTiter-Glo). Conditions: VLR-conjugated doxorubicin-loaded liposomes bound to bEnd.3 ECM, 2 h incubation, unbound washed, 72 hours culture; read-out: EC50, U87 cell viability as a function of doxorubicin concentration. It counts as cell-based, human. The text has this:
EC50 calculations were made using GraphPad software suite. […] Data are presented as mean pixel intensity±SD.

The test system of assay [3] is bEnd.3 ECM. Description: ELISA-based screen of comparative VLR binding to bEnd.3 and 3T3 ECM. The arrangement: species or system mouse. Conditions: VLR reduced off yeast surface; anti-c-myc detection. The text has this: Brain ECM-binding VLRs were identified by mining a yeast surface display library of VLRs. The library was generated from the VLR repertoire of lamprey immunized with mechanically isolated murine brain microvessel plasma membrane preparations that contained associated brain ECM (20). The library was first enriched for ECM binders via two rounds of biopanning on decellularized ECM generated by cultured mouse brain endothelial cells (bEnd.3 cell line). Next, we sought to identify ECM-binding clones that preferentially bound bEnd.3 ECM compared to control mouse fibroblast ECM (3T3 cell line). For this analysis, we picked individual yeast clones into 96-well plates and then expanded and induced them for VLR display. To enable moderate throughput analysis of the clones and avoid cumbersome subcloning of many VLR clones, we removed the VLRs directly from yeast surface via reduction. After removal, we evaluated the comparative binding of VLRs to bEnd.3 and 3T3 ECM via ELISA screening (FIG. 1A). […]
The VLR YSD library underwent two rounds of biopanning against bEnd.3 ECM to enrich for brain ECM-binding clones as previously described (20, 42). […] VLR binding was detected by incubation with one-step 3,3′,5,5′-tetramethylbenzidine (TMB) substrate for 15 to 30 min to develop signal. The reaction was stopped via acidification with 1 M HCl and quantified using absorbance signal at 450 nm. […]

Assay [4] relates to bEnd.3 ECM. Briefly: Biopanning of individual VLR-displaying yeast clones onto bEnd.3 and 3T3 ECM, bright-field microscopy. It counts as binding, mouse. Particulars: yeast-displayed VLR, qualitative. The procedure: FIGS. 1A-1D. Identification of VLRs that bind brain ECM. (A) A yeast surface display VLR library underwent two rounds of biopanning to enrich for clones that bind bEnd.3 ECM. Next, individual clones were grown, induced and screened for comparative binding to bEnd.3 and 3T3 ECM. VLRs were released from the yeast surface using reducing agent and VLR binding to ECM was measured by probing the anti-c-myc epitope tag in an ELISA format. (B) Fold-changes in ECM binding. The ratio of bEnd.3 ECM/3T3 ECM ELISA signals is shown for 285 VLR clones. Lead clones P3A8 and P1C10 are noted. (C) Preferential binding to bEnd.3 ECM was evaluated for selected clones by biopanning individual clones onto bEnd.3 and 3T3 ECM. Yeast binding was qualitatively analyzed by bright field microscopy. Scale bars=100 μm. (D) VLRs were reduced off the yeast surface and used in labeling murine brain sections and detected via an anti-c-myc epitope tag antibody (green). Microvessels (magenta) were labeled with […] lectin, and cell nuclei (blue) were visualized with Hoechst 33342 stain. Scale bars=20 μm.
Brain ECM-binding VLRs were identified by mining a yeast surface display library of VLRs. […] After removal, we evaluated the comparative binding of VLRs to bEnd.3 and 3T3 ECM via ELISA screening (FIG. 1A). […]

B1: P1C10: Lamprey variable lymphocyte receptor clone binding brain ECM, SEQ ID NO:1 (protein)
chain: ACPSQCSCDQTTVKCHSRRLTSVPAGIPTTTKILRLYSNQITKLEPGVFDHLVNLEKLYISWNQLSALPVGVFDKLTKLTHLSLGYNQLKSVPRGAFDNLKSLTHIWLLNNPWDCECSDILYLKNWIVQHASIVNLQGHGGVDNVKCSGTNTPVRAVTEASTSPSKCP
modifications: Synthetic- VLR clone P1C10
As a reminder, the Kd is the concentration at which binding is half-saturated. With B1, the Kd in assay [1] stood at 48.4 ± 6.05 nM. For the same molecule, in assay [2], the EC50 worked out at 199 ± 1.7 nM. Also, the “ELISA fold change (ratio of bEnd.3 ECM/3T3 ECM ELISA signals)” value in assay [3] was determined as 4.2 fold. The “Yeast clone binding to bEnd.3 ECM compared to 3T3 ECM” value in assay [4] is reported as “bound selectively to bEnd.3 ECM compared to 3T3 ECM”.
